Experimental data published in the supplement of paper PMC6379048.

Legend:
Assay in all cases: EC50 of free RNA motif oligo competing protein binding to immobilised probe
[1] = target: T1, AASS (UniProt Q9UDR5)
T1 sequence: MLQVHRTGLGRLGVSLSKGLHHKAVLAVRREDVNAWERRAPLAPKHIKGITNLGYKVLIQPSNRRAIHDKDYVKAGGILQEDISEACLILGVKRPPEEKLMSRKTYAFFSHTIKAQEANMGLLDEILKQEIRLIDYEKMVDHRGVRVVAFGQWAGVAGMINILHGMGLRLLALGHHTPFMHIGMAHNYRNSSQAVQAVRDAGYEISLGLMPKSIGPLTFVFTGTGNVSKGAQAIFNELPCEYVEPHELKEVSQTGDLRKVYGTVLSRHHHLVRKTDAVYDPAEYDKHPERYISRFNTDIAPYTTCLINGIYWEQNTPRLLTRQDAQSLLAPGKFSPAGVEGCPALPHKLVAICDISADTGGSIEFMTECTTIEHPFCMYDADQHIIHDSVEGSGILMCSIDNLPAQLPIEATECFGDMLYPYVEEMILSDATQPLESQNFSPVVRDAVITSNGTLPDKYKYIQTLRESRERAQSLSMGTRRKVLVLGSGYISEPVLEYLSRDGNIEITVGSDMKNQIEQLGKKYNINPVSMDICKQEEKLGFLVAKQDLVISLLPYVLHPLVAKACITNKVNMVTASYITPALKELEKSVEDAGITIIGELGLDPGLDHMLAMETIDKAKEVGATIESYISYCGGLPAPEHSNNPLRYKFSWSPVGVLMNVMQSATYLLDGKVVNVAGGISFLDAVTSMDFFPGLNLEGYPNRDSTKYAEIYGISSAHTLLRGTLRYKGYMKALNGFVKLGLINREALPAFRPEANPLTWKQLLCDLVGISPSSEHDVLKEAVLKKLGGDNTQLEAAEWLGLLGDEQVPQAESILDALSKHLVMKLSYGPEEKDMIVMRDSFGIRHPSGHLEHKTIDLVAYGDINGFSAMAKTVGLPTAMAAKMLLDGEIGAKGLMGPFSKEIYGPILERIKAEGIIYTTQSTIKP
In short: (§1)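 Free RNA oligos (0 nM to 30 μM) competed for 1 h at 4°C in HEK293-FT lysate (2.5 mg protein/well) before a 30 min, 4°C pulldown with the same oligos on NHS-Sepharose beads. Bound proteins were quantified by label-free LC-MS/MS and normalised to the control. Kd was found by multiplying EC50, from a four-parameter log-logistic fit, by a protein-dependent depletion factor.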

[2] = target: AGO1 (UniProt Q9UL18)
In short: as §1

[3] = target: T2, DHX37 (UniProt Q8IY37)
T2 sequence: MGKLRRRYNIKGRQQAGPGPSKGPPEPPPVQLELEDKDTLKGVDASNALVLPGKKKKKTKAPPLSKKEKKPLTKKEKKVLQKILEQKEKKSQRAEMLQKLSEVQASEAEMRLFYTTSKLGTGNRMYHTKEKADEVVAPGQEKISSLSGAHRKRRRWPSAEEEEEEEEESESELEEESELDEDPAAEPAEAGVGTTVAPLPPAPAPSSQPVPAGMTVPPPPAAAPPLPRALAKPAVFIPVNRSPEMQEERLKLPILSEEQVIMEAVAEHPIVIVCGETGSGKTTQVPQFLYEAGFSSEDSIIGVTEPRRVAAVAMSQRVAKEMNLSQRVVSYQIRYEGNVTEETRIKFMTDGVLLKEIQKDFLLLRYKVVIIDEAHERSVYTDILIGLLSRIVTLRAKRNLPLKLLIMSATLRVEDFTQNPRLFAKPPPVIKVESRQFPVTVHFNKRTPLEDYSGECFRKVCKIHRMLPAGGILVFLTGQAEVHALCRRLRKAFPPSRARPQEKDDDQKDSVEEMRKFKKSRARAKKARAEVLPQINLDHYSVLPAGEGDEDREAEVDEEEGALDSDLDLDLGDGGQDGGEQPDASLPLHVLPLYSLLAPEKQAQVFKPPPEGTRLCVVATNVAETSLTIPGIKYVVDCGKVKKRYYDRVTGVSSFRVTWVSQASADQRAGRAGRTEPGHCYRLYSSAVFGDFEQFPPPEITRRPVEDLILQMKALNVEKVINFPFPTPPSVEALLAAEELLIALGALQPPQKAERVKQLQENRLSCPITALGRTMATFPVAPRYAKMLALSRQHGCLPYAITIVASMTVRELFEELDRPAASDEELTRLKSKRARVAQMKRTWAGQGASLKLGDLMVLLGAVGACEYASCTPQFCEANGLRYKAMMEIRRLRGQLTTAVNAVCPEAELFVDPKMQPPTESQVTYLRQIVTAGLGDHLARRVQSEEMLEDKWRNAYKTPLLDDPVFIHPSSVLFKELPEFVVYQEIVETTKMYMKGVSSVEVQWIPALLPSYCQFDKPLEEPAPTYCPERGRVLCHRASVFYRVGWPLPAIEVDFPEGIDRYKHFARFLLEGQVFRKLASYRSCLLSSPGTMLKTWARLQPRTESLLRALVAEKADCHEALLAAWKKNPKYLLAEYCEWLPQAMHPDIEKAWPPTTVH
In short: as §1

Sequence	EC50 [1] [µM]	EC50 [2] [µM]	EC50 [3] [µM]
AAUAAA	9.78	0.379	
UAUUUAU			4.68
